Data: patent US20220010021A1 (Sanofi, published 2022)

T1: human beta-Klotho (KLB) (human, UniProt Q86Z14 53-997)
T1 construct: also called human KLB
T1 sequence (looked up): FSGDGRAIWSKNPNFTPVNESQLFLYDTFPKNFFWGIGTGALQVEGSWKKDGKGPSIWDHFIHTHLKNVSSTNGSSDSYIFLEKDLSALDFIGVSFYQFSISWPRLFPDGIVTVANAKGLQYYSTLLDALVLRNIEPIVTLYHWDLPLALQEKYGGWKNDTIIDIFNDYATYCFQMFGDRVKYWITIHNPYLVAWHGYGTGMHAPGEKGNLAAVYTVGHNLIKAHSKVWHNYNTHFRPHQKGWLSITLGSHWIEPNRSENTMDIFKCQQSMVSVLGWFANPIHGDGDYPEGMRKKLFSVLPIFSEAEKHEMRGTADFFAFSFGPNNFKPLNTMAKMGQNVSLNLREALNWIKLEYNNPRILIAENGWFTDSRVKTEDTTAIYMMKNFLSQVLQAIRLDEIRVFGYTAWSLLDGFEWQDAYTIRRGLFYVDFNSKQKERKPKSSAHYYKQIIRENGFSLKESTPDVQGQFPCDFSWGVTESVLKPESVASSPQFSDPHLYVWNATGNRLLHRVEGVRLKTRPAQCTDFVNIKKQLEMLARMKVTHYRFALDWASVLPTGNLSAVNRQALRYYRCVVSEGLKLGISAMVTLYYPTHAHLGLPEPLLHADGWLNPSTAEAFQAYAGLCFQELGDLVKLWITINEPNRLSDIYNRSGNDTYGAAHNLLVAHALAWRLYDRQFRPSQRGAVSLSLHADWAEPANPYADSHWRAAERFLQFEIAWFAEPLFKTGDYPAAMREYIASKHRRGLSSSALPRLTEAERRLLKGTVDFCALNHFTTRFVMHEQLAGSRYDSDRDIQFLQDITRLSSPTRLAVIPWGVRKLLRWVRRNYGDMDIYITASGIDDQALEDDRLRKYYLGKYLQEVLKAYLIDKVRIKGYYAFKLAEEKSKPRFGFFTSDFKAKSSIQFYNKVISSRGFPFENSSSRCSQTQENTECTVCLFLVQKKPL

T2: human beta-Klotho (KLB) (human, UniProt Q86Z14 53-997)
T2 construct: Bought protein; also called human KLB; β-Klotho
T2 sequence (looked up): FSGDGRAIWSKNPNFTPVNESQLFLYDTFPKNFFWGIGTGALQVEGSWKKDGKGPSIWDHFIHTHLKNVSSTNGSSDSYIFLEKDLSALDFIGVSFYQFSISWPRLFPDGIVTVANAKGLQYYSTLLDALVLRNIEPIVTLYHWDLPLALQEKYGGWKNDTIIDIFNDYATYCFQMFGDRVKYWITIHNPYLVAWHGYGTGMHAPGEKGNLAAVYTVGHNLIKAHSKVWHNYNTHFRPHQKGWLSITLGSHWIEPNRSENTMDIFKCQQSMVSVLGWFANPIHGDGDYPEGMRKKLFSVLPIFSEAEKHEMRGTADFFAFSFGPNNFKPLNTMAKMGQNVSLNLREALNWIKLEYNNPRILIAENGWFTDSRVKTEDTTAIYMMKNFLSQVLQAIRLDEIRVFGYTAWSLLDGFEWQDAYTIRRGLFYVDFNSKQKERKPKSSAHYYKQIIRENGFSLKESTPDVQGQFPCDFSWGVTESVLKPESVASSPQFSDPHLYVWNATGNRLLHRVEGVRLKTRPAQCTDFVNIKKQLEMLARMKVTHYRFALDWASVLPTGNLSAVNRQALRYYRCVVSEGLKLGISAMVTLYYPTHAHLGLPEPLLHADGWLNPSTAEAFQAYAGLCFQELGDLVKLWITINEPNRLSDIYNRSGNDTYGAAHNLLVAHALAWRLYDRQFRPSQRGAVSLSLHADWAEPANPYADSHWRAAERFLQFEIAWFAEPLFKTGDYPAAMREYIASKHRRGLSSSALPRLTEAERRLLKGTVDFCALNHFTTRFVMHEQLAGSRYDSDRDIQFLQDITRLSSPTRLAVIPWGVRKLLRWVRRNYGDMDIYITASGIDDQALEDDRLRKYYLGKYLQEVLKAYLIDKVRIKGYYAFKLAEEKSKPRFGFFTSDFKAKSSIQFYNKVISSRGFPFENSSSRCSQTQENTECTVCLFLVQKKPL

B1: 16H7 variant, light chain S55Y (antibody, IgG4, V domains shown)
VH: not shown
VL: SYVLTQPPSVSVAPGQTARITCGGNNIGSESVHWYQQKPGQAPVLVVYDDSDRPYGIPERFSGSNSGNTATLTISRVEAGDEADYYCQVWDGNSDHVVFGGGTKLTVLG
notes: IgG4 backbone; copies: 2 + 2
B2: 16H7 light chain variant V32R (antibody, IgG4, V domains shown)
VH: not shown
VL: SYVLTQPPSVSVAPGQTARITCGGNNIGSESRHWYQQKPGQAPVLVVYDDSDRPSGIPERFSGSNSGNTATLTISRVEAGDEADYYCQVWDGNSDHVVFGGGTKLTVLG
notes: IgG4 backbone
B3: 16H7 light chain variant D50W (antibody, IgG4, V domains shown)
VH: not shown
VL: SYVLTQPPSVSVAPGQTARITCGGNNIGSESVHWYQQKPGQAPVLVVYDWSDRPSGIPERFSGSNSGNTATLTISRVEAGDEADYYCQVWDGNSDHVVFGGGTKLTVLG
notes: IgG4 backbone
B4: 16H7 light chain variant D49S (antibody, IgG4, V domains shown)
VH: not shown
VL: SYVLTQPPSVSVAPGQTARITCGGNNIGSESVHWYQQKPGQAPVLVVYSDSDRPSGIPERFSGSNSGNTATLTISRVEAGDEADYYCQVWDGNSDHVVFGGGTKLTVLG
notes: IgG4 backbone
B5: 16H7 light chain variant D49G (antibody, IgG4, V domains shown)
VH: not shown
VL: SYVLTQPPSVSVAPGQTARITCGGNNIGSESVHWYQQKPGQAPVLVVYGDSDRPSGIPERFSGSNSGNTATLTISRVEAGDEADYYCQVWDGNSDHVVFGGGTKLTVLG
notes: IgG4 backbone
B6: 16H7 light chain variant D50T (antibody, IgG4, V domains shown)
VH: not shown
VL: SYVLTQPPSVSVAPGQTARITCGGNNIGSESVHWYQQKPGQAPVLVVYDTSDRPSGIPERFSGSNSGNTATLTISRVEAGDEADYYCQVWDGNSDHVVFGGGTKLTVLG
notes: IgG4 backbone
B7: 16H7 light chain variant D50Q (antibody, IgG4, V domains shown)
VH: not shown
VL: SYVLTQPPSVSVAPGQTARITCGGNNIGSESVHWYQQKPGQAPVLVVYDQSDRPSGIPERFSGSNSGNTATLTISRVEAGDEADYYCQVWDGNSDHVVFGGGTKLTVLG
notes: IgG4 backbone
B8: 16H7 light chain variant D50A (antibody, IgG4, V domains shown)
VH: not shown
VL: SYVLTQPPSVSVAPGQTARITCGGNNIGSESVHWYQQKPGQAPVLVVYDASDRPSGIPERFSGSNSGNTATLTISRVEAGDEADYYCQVWDGNSDHVVFGGGTKLTVLG
notes: IgG4 backbone
B9: 16H7 light chain variant D50H (antibody, IgG4, V domains shown)
VH: not shown
VL: SYVLTQPPSVSVAPGQTARITCGGNNIGSESVHWYQQKPGQAPVLVVYDHSDRPSGIPERFSGSNSGNTATLTISRVEAGDEADYYCQVWDGNSDHVVFGGGTKLTVLG
notes: IgG4 backbone
B10: 16H7 light chain variant D50R (antibody, IgG4, V domains shown)
VH: not shown
VL: SYVLTQPPSVSVAPGQTARITCGGNNIGSESVHWYQQKPGQAPVLVVYDRSDRPSGIPERFSGSNSGNTATLTISRVEAGDEADYYCQVWDGNSDHVVFGGGTKLTVLG
notes: IgG4 backbone
B11: 16H7 light chain variant D50Y (antibody, IgG4, V domains shown)
VH: not shown
VL: SYVLTQPPSVSVAPGQTARITCGGNNIGSESVHWYQQKPGQAPVLVVYDYSDRPSGIPERFSGSNSGNTATLTISRVEAGDEADYYCQVWDGNSDHVVFGGGTKLTVLG
notes: IgG4 backbone
B12: 16H7 light chain variant D50V (antibody, IgG4, V domains shown)
VH: not shown
VL: SYVLTQPPSVSVAPGQTARITCGGNNIGSESVHWYQQKPGQAPVLVVYDVSDRPSGIPERFSGSNSGNTATLTISRVEAGDEADYYCQVWDGNSDHVVFGGGTKLTVLG
notes: IgG4 backbone
B13: 16H7 light chain variant D50S (antibody, IgG4, V domains shown)
VH: not shown
VL: SYVLTQPPSVSVAPGQTARITCGGNNIGSESVHWYQQKPGQAPVLVVYDSSDRPSGIPERFSGSNSGNTATLTISRVEAGDEADYYCQVWDGNSDHVVFGGGTKLTVLG
notes: IgG4 backbone
B14: 16H7 light chain variant D50L (antibody, IgG4, V domains shown)
VH: not shown
VL: SYVLTQPPSVSVAPGQTARITCGGNNIGSESVHWYQQKPGQAPVLVVYDLSDRPSGIPERFSGSNSGNTATLTISRVEAGDEADYYCQVWDGNSDHVVFGGGTKLTVLG
notes: IgG4 backbone
B15: 16H7 light chain variant D49W (antibody, IgG4, V domains shown)
VH: not shown
VL: SYVLTQPPSVSVAPGQTARITCGGNNIGSESVHWYQQKPGQAPVLVVYWDSDRPSGIPERFSGSNSGNTATLTISRVEAGDEADYYCQVWDGNSDHVVFGGGTKLTVLG
notes: IgG4 backbone
B16: 16H7 light chain variant D50E (antibody, IgG4, V domains shown)
VH: not shown
VL: SYVLTQPPSVSVAPGQTARITCGGNNIGSESVHWYQQKPGQAPVLVVYDESDRPSGIPERFSGSNSGNTATLTISRVEAGDEADYYCQVWDGNSDHVVFGGGTKLTVLG
notes: IgG4 backbone
B17: 16H7 light chain variant D50G (antibody, IgG4, V domains shown)
VH: not shown
VL: SYVLTQPPSVSVAPGQTARITCGGNNIGSESVHWYQQKPGQAPVLVVYDGSDRPSGIPERFSGSNSGNTATLTISRVEAGDEADYYCQVWDGNSDHVVFGGGTKLTVLG
notes: IgG4 backbone
B18: 16H7 light chain variant D50I (antibody, IgG4, V domains shown)
VH: not shown
VL: SYVLTQPPSVSVAPGQTARITCGGNNIGSESVHWYQQKPGQAPVLVVYDISDRPSGIPERFSGSNSGNTATLTISRVEAGDEADYYCQVWDGNSDHVVFGGGTKLTVLG
notes: IgG4 backbone
B19: 16H7 light chain variant D50F (antibody, IgG4, V domains shown)
VH: not shown
VL: SYVLTQPPSVSVAPGQTARITCGGNNIGSESVHWYQQKPGQAPVLVVYDFSDRPSGIPERFSGSNSGNTATLTISRVEAGDEADYYCQVWDGNSDHVVFGGGTKLTVLG
notes: IgG4 backbone
B20: 16H7 light chain variant D50C (antibody, IgG4, V domains shown)
VH: not shown
VL: SYVLTQPPSVSVAPGQTARITCGGNNIGSESVHWYQQKPGQAPVLVVYDCSDRPSGIPERFSGSNSGNTATLTISRVEAGDEADYYCQVWDGNSDHVVFGGGTKLTVLG
notes: IgG4 backbone
B21: 16H7 light chain variant D50M (antibody, IgG4, V domains shown)
VH: not shown
VL: SYVLTQPPSVSVAPGQTARITCGGNNIGSESVHWYQQKPGQAPVLVVYDMSDRPSGIPERFSGSNSGNTATLTISRVEAGDEADYYCQVWDGNSDHVVFGGGTKLTVLG
notes: IgG4 backbone

Columns and labels:
[1] = target: human FGFR1c/KLB cell surface receptor complex on iLite FGF21 reporter cells (human, UniProt P11362 22-822; Q86Z14 1-1044); assay: cell-based or functional assay
human beta-Klotho (KLB) [2] = target: T1, human beta-Klotho (KLB); assay: BLI off-rate screen (Octet), Ab captured via Fc;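 also: antibody supernatants applied at 25 µg/mL, dissociation monitored over 1800 s in D-PBS with 0.1% BSA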
[3] = target: cell surface receptor composed of FGFR1c and co-receptor beta-Klotho (KLB) (human, UniProt P11362 22-822; Q86Z14 1-1044); assay: cell-based or functional assay
human beta-Klotho (KLB) [4] = target: T2, human beta-Klotho (KLB); assay: BLI off-rate screening (Octet), crude supernatant;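 also: supernatants tested at 25 µg/mL, dissociation from biosensors recorded in D-PBS with 0.1% BSA over 1800 s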
For Mean E max (%) in this document: reference of the scale not given here.
For Mean E max, Luciferase reporter gene assay in this document: reference of the scale not given here.

Chain of cell surface receptor composed of FGFR1c and co-receptor beta-Klotho (KLB) (P11362 22-822, chain 1 of 2): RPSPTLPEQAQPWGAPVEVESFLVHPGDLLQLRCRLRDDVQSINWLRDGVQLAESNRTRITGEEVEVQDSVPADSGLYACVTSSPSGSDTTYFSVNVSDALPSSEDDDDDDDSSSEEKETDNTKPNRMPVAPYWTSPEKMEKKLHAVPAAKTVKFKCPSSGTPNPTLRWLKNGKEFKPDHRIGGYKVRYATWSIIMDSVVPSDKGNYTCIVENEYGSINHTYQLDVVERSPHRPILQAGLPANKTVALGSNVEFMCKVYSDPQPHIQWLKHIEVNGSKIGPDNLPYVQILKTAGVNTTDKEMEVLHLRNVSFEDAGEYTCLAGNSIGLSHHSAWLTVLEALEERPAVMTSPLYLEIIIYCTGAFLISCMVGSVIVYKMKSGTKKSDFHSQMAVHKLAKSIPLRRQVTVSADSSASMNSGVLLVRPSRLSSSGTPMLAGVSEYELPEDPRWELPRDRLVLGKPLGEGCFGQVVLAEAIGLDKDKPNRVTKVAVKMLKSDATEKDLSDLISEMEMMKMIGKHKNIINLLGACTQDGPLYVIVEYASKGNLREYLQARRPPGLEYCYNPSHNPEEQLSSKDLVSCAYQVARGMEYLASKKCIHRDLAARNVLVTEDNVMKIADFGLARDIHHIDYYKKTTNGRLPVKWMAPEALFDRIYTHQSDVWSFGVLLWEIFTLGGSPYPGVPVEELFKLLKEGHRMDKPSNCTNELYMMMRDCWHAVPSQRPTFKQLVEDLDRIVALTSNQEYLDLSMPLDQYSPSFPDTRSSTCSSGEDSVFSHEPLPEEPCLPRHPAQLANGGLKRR
Chain of cell surface receptor composed of FGFR1c and co-receptor beta-Klotho (KLB) (Q86Z14 whole entry, chain 2 of 2): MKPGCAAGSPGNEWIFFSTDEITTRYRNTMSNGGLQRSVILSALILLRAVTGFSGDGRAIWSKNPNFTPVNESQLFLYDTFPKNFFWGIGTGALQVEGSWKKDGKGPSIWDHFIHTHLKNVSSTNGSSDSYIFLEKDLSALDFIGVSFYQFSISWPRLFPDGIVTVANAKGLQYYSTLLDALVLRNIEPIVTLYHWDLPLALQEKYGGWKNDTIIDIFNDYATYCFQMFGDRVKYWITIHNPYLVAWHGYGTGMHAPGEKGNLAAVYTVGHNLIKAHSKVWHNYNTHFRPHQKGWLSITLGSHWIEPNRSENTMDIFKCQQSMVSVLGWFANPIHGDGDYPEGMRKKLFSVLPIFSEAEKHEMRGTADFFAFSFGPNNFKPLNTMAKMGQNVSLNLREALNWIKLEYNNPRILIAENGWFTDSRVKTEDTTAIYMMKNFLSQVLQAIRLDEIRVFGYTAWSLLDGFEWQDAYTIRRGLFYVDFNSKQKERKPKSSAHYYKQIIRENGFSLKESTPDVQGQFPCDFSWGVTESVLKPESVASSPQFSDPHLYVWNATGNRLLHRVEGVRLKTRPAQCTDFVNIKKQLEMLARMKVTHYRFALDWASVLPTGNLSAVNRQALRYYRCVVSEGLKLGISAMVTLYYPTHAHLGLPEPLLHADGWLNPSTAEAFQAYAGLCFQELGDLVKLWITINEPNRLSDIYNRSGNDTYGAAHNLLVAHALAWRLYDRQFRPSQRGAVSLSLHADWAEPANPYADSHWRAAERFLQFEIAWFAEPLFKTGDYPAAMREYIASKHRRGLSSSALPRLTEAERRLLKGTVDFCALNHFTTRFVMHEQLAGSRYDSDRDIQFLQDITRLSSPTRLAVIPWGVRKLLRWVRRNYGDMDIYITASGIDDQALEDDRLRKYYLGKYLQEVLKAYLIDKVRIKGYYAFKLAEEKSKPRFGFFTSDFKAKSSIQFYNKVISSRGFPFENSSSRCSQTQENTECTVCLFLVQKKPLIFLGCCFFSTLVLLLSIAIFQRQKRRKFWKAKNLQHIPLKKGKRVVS
Chain of human FGFR1c/KLB cell surface receptor complex on iLite FGF21 reporter cells (P11362 22-822, chain 1 of 2): as the sequence (P11362 22-822, chain 1 of 2) above
Chain of human FGFR1c/KLB cell surface receptor complex on iLite FGF21 reporter cells (Q86Z14 whole entry, chain 2 of 2): as the sequence (Q86Z14 whole entry, chain 2 of 2) above

Row | Binder | Mean E max (%) [1] [%] | Mean EC50 [1] [nM] | koff (human beta-Klotho (KLB) [2]) [s⁻¹] | Mean E max, Luciferase reporter gene assay [3] [%] | Mean EC50, Luciferase reporter gene assay [3] [nM] | koff (human beta-Klotho (KLB) [4]) [s⁻¹]
1 | B1 | 113 | 0.126 | 1.8e-05 |  |  | 
2 | B2 |  |  |  | 112 | 0.135 | 2.3e-06
3 | B3 |  |  |  | 108 | 0.145 | 0.00017
4 | B4 |  |  |  | 98 | 0.098 | 9.9e-05
5 | B5 |  |  |  | 102 | 0.102 | 0.00029
6 | B6 |  |  |  | 104 | 0.12 | 3.9e-05
7 | B7 |  |  |  | 107 | 0.171 | 7.9e-05
8 | B8 |  |  |  | 105 | 0.211 | 7.6e-05
9 | B9 |  |  |  | 94 | 0.126 | 0.00019
10 | B10 |  |  |  | 110 | 0.122 | 0.00013
11 | B11 |  |  |  | 113 | 0.157 | 0.00016
12 | B12 |  |  |  | 105 | 0.106 | 2.2e-05
13 | B13 |  |  |  | 100 | 0.118 | 4.1e-06
14 | B14 |  |  |  | 106 | 0.095 | 0.00013
15 | B15 |  |  |  | 101 | 0.126 | 0.00032
16 | B16 |  |  |  | 91 | 0.123 | 0.00016
17 | B17 |  |  |  | 107 | 0.136 | 1.7e-05
18 | B18 |  |  |  | 109 | 0.114 | 8.2e-05
19 | B19 |  |  |  | 113 | 0.124 | 0.0001
20 | B20 |  |  |  | 109 | 0.153 | 3.9e-05
21 | B21 |  |  |  | 110 | 0.125 | 0.00013
